Assay [1] addresses T1, reconstituted holoenzyme from HK-STAAU_R12 and S. aureus core enzyme (Staphylococcus aureus, UniProt P0A0J0).
T1 construct: made in house; S. aureus RN4220 transformed with pTMHB rpoA (core enzyme)
Briefly: In vitro transcription and TCA precipitation assay, 96-well. The format is biochemical. The settings on record: 10 μM, FIG. 8. The source says: In order to convert this gel-based transcription assay to a 96-well high through put format, we used an in vitro transcription assay followed by a TCA precipitation step in order to separate radiolabeled nucleotides incorporated into nucleic acid from unincorporated label. Such format is convenient as it will allow rapid screening with a large collection of compounds. In this TCA precipitation assay, we reconstituted the holoenzyme from STAAU_R12 and S. aureus core enzyme instead of using the E. coli core enzyme with STAAU_R12.
The E. coli core enzyme (Epicentre) was used as a positive control for monitoring transcription efficiency. The set up of high throughput screening assay for STAAU_R12 is illustrated in FIG. 7. […] UTP (3000 Ci/mmole), 1 U of RNasin (Promega) and 40 ng of pTMSM template DNA (a pTM derivative vector). To investigate the in vitroeffectofG1ORF67 on STAAU_R12 mediated transcriptional activation, G1ORF67 and a negative control (10 μM) were added to the mixture and the reaction was incubated for 1 h at 37° C. in a 96-well PCR-plate (BD-Falcon™). […] After filtration, the wells were washed 3 times (225 μl per wash) with 10% TCA, 2 times (225 μl per wash) with 95% ethanol and then 75 μl of liquid scintillation cocktail was added and the plates were counted for 30 s on a Trilux™ Microbeta counter (Perkin Elmer-Packard).

The target in assay [2] is T2, HK-STAAU_R12 (Staphylococcus aureus, UniProt P0A0I8 1-368).
T2 construct: not shown: N-terminal 6x histidine tag and heart muscle kinase (HMK) phosphorylation site of vector pH6K
In words: TR-FRET, 32 nM of both GB-G1ORF67 and HK-STAAU_R12.

Assay [3] deals with T2, HK-STAAU_R12. Briefly: TR-FRET competition, untagged G1ORF67 against 32 nM GB-G1ORF67 on 32 nM HK-STAAU_R12.
Assay [4] has as its target T3, STAAU_R12 (Staphylococcus aureus, UniProt P0A0J0). In words: Far Western analysis with 32P-labeled HK-STAAU_R12 probe. It counts as binding. Further details: made in house; host or cells: E. coli BL21. The settings on record: 100 ng to 2 μg immobilised protein, FIG. 4. On the procedure: Radiolabeling of the proteins was done through the heart muscle phosphate acceptor site with the heart muscle kinase enzyme (HMK). The labeled probe was incubated with immobilized target protein, and the interaction was detected by exposure to X-ray film after extensive washes.
For radiolabeling with […], 10-15 μg of STAAU_R12 fused to 6× histidine and the HMK kinase acceptor domain (HK-STAAU_R12) were incubated with 50 units of the catalytic sub-unit of cAMP-dependent protein kinase (Heart Muscle Kinase; Sigma) in a total volume of 100 μl containing 20 mM Tris pH 7.5, 100 mM NaCl, 12 mM MgCl2, 1 mM DTT and 50 μCi of [γ^32P]-ATP (3000 Ci/mmole) (NEN/Mandel) for 30 min at room temperature. To remove free nucleotides, the protein was applied to a Sephadex-G50™ column and eluted with Z-buffer (25 mM Hepes pH 7.7, 12.5 mM MgCl2, 20% glycerol, 100 mM KCl & 1 mM DTT) and the incorporation of γ^32P-ATP was determined by counting in a liquid scintillation counter.
Increasing amounts (from 100 ng to 2 μg) of HB-G1ORF67 and as a negative control, 77ORF104 protein (2 μg) were used for Far-western analysis. Proteins were resolved by 15% SDS-PAGE and transferred onto a nitrocellulose membrane (Millipore). […]

Assay [5] addresses SV40 large T antigen (pGADT7-LargeT) (SV40, UniProt P03070 86-708). Briefly: yeast two-hybrid, AH109.
The target of assay [6] is T3, STAAU_R12. Briefly: Yeast two-hybrid analysis. The format is cell-based. Further details: expressed in transfected cells; host or cells: yeast strain AH109 (Clontech). The settings on record: yeast AH109.
Text: To validate the interaction between G1ORF67 and STAAU_R12, we first performed yeast two-hybrid analyses with full length and deletions within both STAAU_R12 and G1ORF67. The inserts were cloned into pGADT7™ and pGBK™, the yeast vectors for two hybrid system studies (Clontech Laboratories) as fusions with the Gal4 activation domain (for pGADT7™) as well as with the Gal4 DNA-binding domain (for pGBK™). pGADT7 and pGBK recombinant plasmids bearing different combinations of constructs were introduced into a yeast strain (AH109, Clontech Laboratories), previously engineered to contain chromosomally-integrated copies of E. coli lacZand the selectable HIS3 and ADE2 genes. […]
To define the minimal region of STAAU_R12 conferring an interaction with G1ORF67, six deletions of STAAU_R12 were cloned into pGADT7 and introduced into AH109 yeast cells with the pGBK vector containing the full length sequence of G1ORF67. The resulting co-transformants were analyzed for their ability to induce expression of reporter genes.
To define the minimal region of G1ORF67 conferring an interaction with STAAU_R12, six deletions of G1ORF67 were cloned into pGADT7 and introduced into AH109 yeast cells with the pGBK vector containing the full length sequence of STAAU_R12. The resulting co-transformants were analyzed for their ability to induce expression of reporter genes required for viability on selective medium.
In assay [7] the target is STAAU_R12 full length fused to the Gal4 activation domain (p[…]_R12) (Staphylococcus aureus, UniProt P0A0I8 1-368). In words: yeast two-hybrid, AH109.
STAAU_R12 full length fused to the Gal4 activation domain (p[…]_R12), sequence (P0A0I8 whole entry, the tested form may be a part): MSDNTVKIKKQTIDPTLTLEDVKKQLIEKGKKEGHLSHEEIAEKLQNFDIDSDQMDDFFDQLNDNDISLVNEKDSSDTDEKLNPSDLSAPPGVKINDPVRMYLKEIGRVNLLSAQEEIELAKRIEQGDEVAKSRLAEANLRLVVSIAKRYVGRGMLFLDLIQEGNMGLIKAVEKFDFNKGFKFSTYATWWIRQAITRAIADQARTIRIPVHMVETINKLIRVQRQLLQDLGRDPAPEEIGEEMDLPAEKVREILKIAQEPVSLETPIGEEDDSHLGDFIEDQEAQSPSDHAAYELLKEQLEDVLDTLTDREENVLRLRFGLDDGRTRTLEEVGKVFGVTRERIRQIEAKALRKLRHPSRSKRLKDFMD

T3 sequence (P0A0J0 whole entry, the tested form may be a part): as the sequence (P0A0I8 whole entry, the tested form may be a part) above
T2 sequence (P0A0I8 whole entry): as the sequence (P0A0I8 whole entry, the tested form may be a part) above
SV40 large T antigen (pGADT7-LargeT), sequence (P03070 86-708 limits assumed): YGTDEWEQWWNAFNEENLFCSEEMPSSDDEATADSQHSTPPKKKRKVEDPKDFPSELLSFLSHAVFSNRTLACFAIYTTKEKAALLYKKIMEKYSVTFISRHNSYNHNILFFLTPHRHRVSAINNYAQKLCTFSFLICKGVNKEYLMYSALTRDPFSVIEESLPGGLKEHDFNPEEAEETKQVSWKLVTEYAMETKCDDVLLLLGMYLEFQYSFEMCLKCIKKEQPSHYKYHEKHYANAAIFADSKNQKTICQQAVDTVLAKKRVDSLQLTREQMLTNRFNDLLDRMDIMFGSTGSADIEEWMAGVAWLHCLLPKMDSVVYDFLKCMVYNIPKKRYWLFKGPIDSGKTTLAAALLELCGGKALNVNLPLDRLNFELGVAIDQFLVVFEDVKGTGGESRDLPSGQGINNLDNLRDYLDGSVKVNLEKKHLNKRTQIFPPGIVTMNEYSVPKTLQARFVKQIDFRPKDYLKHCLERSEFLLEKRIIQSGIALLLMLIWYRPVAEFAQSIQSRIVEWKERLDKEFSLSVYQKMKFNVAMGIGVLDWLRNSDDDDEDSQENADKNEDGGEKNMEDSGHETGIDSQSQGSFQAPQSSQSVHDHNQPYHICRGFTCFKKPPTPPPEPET
T1 sequence (P0A0J0 whole entry): as the sequence (P0A0I8 whole entry, the tested form may be a part) above

Regarding “GST: glutathione-S-transferase protein used as a negative control [reference compound]”, in assay [1], the “inhibition of STAAU_R12 mediated transcriptional activation (TCA precipitation)” value was “did not show any inhibition”.

B1: GB-G1ORF67 (other)
chain: MKLKILDKDNATLNVFHRNKEHKTIDNVPTANLVDWYPLSNAYEYKLSRNGEYLELKRLRSTLPSSYGLDDNNQDIIRDNNHRCKIGYWYNPAVRKDNLKIIEKAKQYGLPIITEEYDANTVEQGFRDIGVIFQSLKTIVVTRYLEGKTEEELRIFNMKSEESQLNEALKESDFSVDLTYSDLGQIYNMLLLMKKISK
notes: also called GST-Bio fusion of G1ORF67; GST-tagged G1ORF67
As to B1, in the assay with HK-STAAU_R12 [2], the TR-FRET signal-to-background was 30 ratio (to 1).

B2: untagged G1ORF67 (other)
chain: MKLKILDKDNATLNVFHRNKEHKTIDNVPTANLVDWYPLSNAYEYKLSRNGEYLELKRLRSTLPSSYGLDDNNQDIIRDNNHRCKIGYWYNPAVRKDNLKIIEKAKQYGLPIITEEYDANTVEQGFRDIGVIFQSLKTIVVTRYLEGKTEEELRIFNMKSEESQLNEALKESDFSVDLTYSDLGQIYNMLLLMKKISK
notes: also called G1ORF67 with GST portion removed by PreScission protease; not shown: the bioti
The molecule B2 registered an IC50 with HK-STAAU_R12 [3] of around 30 nM.

B3: HB-G1ORF67: G1ORF67 fused N-terminally to 6× Histidine residues and a biotin acceptor domain, purified from E. coli (protein)
chain: MKLKILDKDNATLNVFHRNKEHKTIDNVPTANLVDWYPLSNAYEYKLSRNGEYLELKRLRSTLPSSYGLDDNNQDIIRDNNHRCKIGYWYNPAVRKDNLKIIEKAKQYGLPIITEEYDANTVEQGFRDIGVIFQSLKTIVVTRYLEGKTEEELRIFNMKSEESQLNEALKESDFSVDLTYSDLGQIYNMLLLMKKISK
modifications: left off: small tags and cut ends
notes: G1ORF67 fused N-terminally to 6× Histidine residues and a biotin acceptor domain, purified from E. coli
With B3, the “interaction with labeled STAAU_R12 probe” value in the assay with STAAU_R12 [4] is recorded as “directly interacts with STAAU_R12 in a dose-dependent manner”.

B4: G1ORF67 full length fused to the Gal4 DNA-binding domain (G1pGBKORF67) (other)
chain: MKLLSSIEQACDICRLKKLKCSKEKPKCAKCLKNNWECRYSPKTKRSPLTRAHLTEVESRLERLEQLFLLIFPREDLDMILKMDSLQDIKALLTGLFVQDNVNKDAVTDRLASVETDMPLTLRQHRISATSSSEESSNKGQRQLTVSMKLKILDKDNATLNVFHRNKEHKTIDNVPTANLVDWYPLSNAYEYKLSRNGEYLELKRLRSTLPSSYGLDDNNQDIIRDNNHRCKIGYWYNPAVRKDNLKIIEKAKQYGLPIITEEYDANTVEQGFRDIGVIFQSLKTIVVTRYLEGKTEEELRIFNMKSEESQLNEALKESDFSVDLTYSDLGQIYNMLLLMKKISK
For B4, the binding result in assay [5] is recorded as “no binding”.

B5: G1ORF67—50—198: 149 amino acid fragment of G1ORF67, amino acids residues 50 to 198 (SEQ ID NO: 8) (protein)
chain: NGEYLELKRLRSTLPSSYGLDDNNQDIIRDNNHRCKIGYWYNPAVRKDNLKIIEKAKQYGLPIITEEYDANTVEQGFRDIGVIFQSLKTIVVTRYLEGKTEEELRIFNMKSEESQLNEALKESDFSVDLTYSDLGQIYNMLLLMKKISK
modifications: Bacteriophage G1
Turning to B5, the “interaction with full length STAAU_R12 (growth on SD THAL minus medium)” value in the assay with STAAU_R12 [6] is “found to interact”.

B6: LaminC (pGBKT7LaminC) (other)
chain: MKLLSSIEQACDICRLKKLKCSKEKPKCAKCLKNNWECRYSPKTKRSPLTRAHLTEVESRLERLEQLFLLIFPREDLDMILKMDSLQDIKALLTGLFVQDNVNKDAVTDRLASVETDMPLTLRQHRISATSSSEESSNKGQRQLTVSSEEVVSREVSGIKAAYEAELGDARKTLDSVAKERARLQLELSKVREEFKELKARNTKKEGDLIAAQARLKDLEALLNSKEAALSTALSEKRTLEGELHDLRGQVAKLEAALGEAKKQLQDEMLRRVDAENRLQTMKEELDFQKNIYSEELRETKRRHETRLVEID
Regarding B6, the binding result in assay [7] is listed as “no binding”.
